Experimental findings from the DeepSol protein solubility set are described below.

This series in a line: soluble on expression in E. coli; label from the status in PepcDB or PDB records.
With “DHWLRQDLRQMFIEELGSNAREIIQFVVGSHDIGKATPLFQYQKAQKGEVWDSIRYAIDRTGRYQKPLPSSYLVKKTSGGPNRHEQWSSFASKNEYLKPSAAAKENWIGLAIGGHHGRFEPVGYGRHQRKAAEDLAKSGWSAAQQDLLRALEKASGITRASLPSELSPELTLVLSGLTILADRISSTESFVITGARMIDDGTLHLATPIDWLKTRKLDSEKHVAKTVGIYHGWNNHESAIHSILKGYDPRPLQTIALQNQVGLLNLMAPTGNGKTEAAILRHSLKENDRLIFLLPTQATSNAIMRRVQGIYSDTPNVAALAHSLASVEDFYQTPLSVFDDHYDPSKEQFESSMSG”, the “soluble on expression in E. coli” value is recorded as “not soluble”.
The value for “MSELSQLSPQPLWDIFAKICSIPHPSYHEEQLAEYIVGWAKEKGFHVERDQVGNILIRQPATAGMENRKPVVLQAHLDMVPQKNNDTVHDFTKDPIQPYIDGEWVKARGTTLGADNGIGMASALAVLADENVVHGPLEVLLTMTEEAGMDGAFGLQSNWLQADILINTDSEEEGEIYMGCAGGIDFTSNLHLDREAVPAGFETFKLTLKGLKGGHSGGEIHVGLGNANKLLVRFLAGHAEELDLRLIDFNGGTLRNAIPREAFATIAVAADKVDALKSLVNTYQEILKNELAEKEKNLALLLDSVANDKAALIAKSRDTFIRLLNATPNGVIRNSDVAKGVVETSLNVGVVTMTDNNVEIHCLIRSLIDSGKDYVVSMLDSLGKLAGAKTEAKGAYPGWQPDANSPVMHLVRETYQRLFNKTPNIQIIHAGLECGLFKKPYPEMDMVSIGPTITGPHSPDEQVHIESVGHYWTLLTELLKEIPAKLEHHHHHH” was “soluble”; that for “KGFSSEDKGEWKLKLDASGNGQAVIRFLPAKTDDALPFAILVNHGFKKNGKWYIETCSSTHGDYDSCPVCQYISKNDLYNTNKTEYSQLKRKTSYWANILVVKDPQAPDNEGKVFKYRFGKKIWDKINAMIAVDTEMGETPVDVTCPWEGANFVLKVKQVSGFSNYDESKFLNQSAIPNIDDESFQKELFEQMVDLSEMTSKDKFKSFEELNTKFNQVLGTAALGGAAAAAAS” was “soluble”.
The value for “MTAQLQSESTSKIVLVTGGAGYIGSHTVVELIENGYDCVVADNLSNSTYDSVARLEVLTKHHIPFYEVDLCDRKGLEKVFKEYKIDSVIHFAGLKAVGESTQIPLRYYHNNILGTVVLLELMQQYNVSKFVFSSSATVYGDATRFPNMIPIPEECPLGPTNPYGHTKYAIENILNDLYNSDKKSWKFAILRYFNPIGAHPSGLIGEDPLGIPNNLLPYMAQVAVGRREKLYIFGDDYDSRDGTPIRDYIHVVDLAKGHIAALQYLEAYNENEGLCREWNLGSGKGSTVFEVYHAFCKASGIDLPYKVTGRRAGDVLNLTAKPDRAKRELKWQTELQVEDSCKDLWKWTTENPFGYQLRGVEARFSAEDMRYDARFVTIGAGTRFQATFANLGASIVDLKVNGQSVVLGYENEEGYLNPDSAYIGATIGRYANRISKGKFSLCNKDYQLTVNNGVNANHSSIGSFHRKRFLGPIIQNPSKDVFTAEYMLIDNEKDTEFPGDLLVTIQYTVNVAQKSLEIVYKGKLTAGEATPINLTNHSYFNLNKPYGDTIEGTEIMVRSKKSVDVDKNMIPTGNIVDREIATFNSTKPTVLGPKNPQFDCCFVVDENAKPSQINTLNNELTLIVKAFHPDSNITLEVLSTEPTYQFYTGDFLSAGYEARQGFAIEPGRYIDAINQENWKDCVTLKNGETYGSKIVYRFS” was “soluble”; that for “SLIKQKLKISQNLNSIQIQTIKILSLNQKELTKLILEESENNECLEINSNKIFFETLKTYRFKKVFYKEDDMIKNQHDIALEKTQTNTSLKEHLLLQLRIQRINEDEIKIGEILINNLNSKGFHIINPYDLFKKEEKEKVKKIIELIQKFDPIGICVPNIIESLILQAKHHKLETNIIKILEKAELLEKTQKKLKEELKIRSKEFNTALEIIRQKLNPNPTLEFKDPNDTNFYVDPDILIINHNNKFKIKIKEVNIFKKELKRTSENPQKQKKAKWLIESLRYRDEILAKIGIAIYTLQKEFLRRGFKSLRPMNLSILSEKISVSKSTISRAIKNKYLKCEWGTILIKELFSSVGGAKTNEFSKLSIKITVKKLLEANKKMSDKEISVILKSKGISISRRTVNKYRNELKSEKGRTYYGT” was “not soluble”; that for “MGSDKIHHHHHHMSTPGSTPPPSVADQPHPLPLANGHPISGATADAAAQWLTLLMSDEMTDSDYQCWQQWRAAHPDHERAWQHIEAVTARFRELPSTAAYKSLSPLTNPVSAGKPGSPGRRKAMGTLLWLGTAGVGSMLVSRTQIWQQTVADYRTGTGEQRAIYLADGTHIMLNTYSAIDVAFDAQHRTIRLITGDILITTHPVHTPISDPRPFIVETAEGRIRALGTRFTVSQRKGRTHVAVLEHAVEVTPAAAPDRQYILPAGQQLSFTRHTLNNATTLDKQTTGWTQGQIIADNIRLGDFITDLGRYRTGLLRCDPAVAELRLSGVFPLDDTDRILETLPSVLPVRVRLRTRYWVIVEAAS” was “not soluble”.
On to “MGSDKIHHHHHHMFLVCGEALFDIFTRADDGGSLNRLGFDAIAGGSPFNVAIGLRRLGVEAAFFAGLSTDYLGRRLRAVLEQETVNAEHLIEFDAPTTLAMVAVGSDGSPTYSFRGDGCADRQLRLEHLPELDERVRGIHVGSFSLVVQPIADTLLALVARESARRLISLDPNVRLNPAPDIQRWRTQIAAFAEHAHLIKVSDEDLHLLYPDSDPQQIAEGWLGKRTQLVIVTRGTQGASVFTRQHGTWSVPAKTVVTADTVGAGDTFQAALLTFLSERQLDTPQGLSTLSRETLDEMLNFAVGAAALTCTKVGPDLPYRHQLG”, for which the “soluble on expression in E. coli” value is given as “not soluble”.
With “MGFDASVLKSVLEQFVDEIGEESVDLIEDRPRFAHAVVVVTDDATGELCQASCIRQLDDVILHETSVANVTSEWMDEEIQRALRELTESRELLDTPRNSVFVEEKHEKQKTVTTTTTSTETSRNTSSRVEFPSMARRTRSTSAARRFN” the entry was “not soluble”; with “MGIRLKDLSKLGYRDNVARSLVVDIVGKYCKHDTKEQIAMTLSNILEHPESYKNNEIWSKLAERLSPTVLAKEFVAYDLREDPLMYKTYGGKFIETLAKQQMNLAMRLPVTVGGALMPDAHAGYGLPIGGVLATDNAVIPYAVGVDIGCRMSLTVFDAKADFLKRYSYQIKEALKDFTHFGMDGGLGFEQEHEVLDREEFRLTPLLKDLQGKAVRQLGSSGGGNHFVEFGEIALQADNVLNLPEGSYVALLSHSGSRGLGAAIAKHYSLLAREVCKLPREAQHFAWLSLDSEEGQEYWMSMNLAGDYARACHERIHLNLSKALGLKPVANVNNHHNFAWKEEIAPGRMAIVHRKGATPAQKGQAGLIPGSMATAGYLVCGKGVEESLCSASHGAGRAMSRQKAKESFTQSALKKMLSQADVTLIGGSIEEIPLAYKDIDRVMYTQETLVEVQGRFMPRIVRMNKE”, “not soluble”; with “MAAPVAPSEPQASRAPQPPVCLLVLGMAGSGKTTFVQRLTGHLHNKGCPPYVINLDPAVHEVPFPANIDIRDTVKYKEVMKQYGLGPNGGIVTSLNLFATRFDQVMKFIEKAQNTFRYVLIDTPGQIEVFTWSASGTIITEALASSFPTVVIYVMDTSRSTNPVTFMSNMLYACSILYKTKLPFIVVMNKTDIIDHSFAVEWMQDFEAFQDALNQETTYVSNLTRSMSLVLDEFYSSLRVVGVSAVVGTGFDELCTQVTSAAEEYEREYRPEYERLKKSLANAQSNQQKEQLERLRKDMGSVALDPEAGKGNASPVLDPSDLILTRGTLDEEDEEADSDTDDIDHRVTEESREEPAFQNFMEESMAHWKRNK”, “not soluble”.
For “KETKTTVHKFGLEPPSELIQKQLRANLDDDIWEVIRSRKIDGEHVILDKDYFFRKHVPHLTKEICENSIYEYIEGELGLSISYAQKEIVAEPCTDEDRELLDLRGYDHMVVVRNYVFLEDTSLFQYTESRHRL”, the “soluble on expression in E. coli” value is listed as “not soluble”.
On to “MPPMHLLKSKVHIAEALNDETTMSLLKKIVSKKCISKISQWKNELSSNLDG”, for which the “soluble on expression in E. coli” value is given as “not soluble”.
With “VRLLESGGGLVQPGGSLKLSCAASGFDYSRYWMSWVRQAPGKGLKWIGEINPVSSTINYTPSLKDKFIISRDNAKDTLYLQISKVRSEDTALYYCARLYYGYGYWYFDVWGAGTTVTVSSAKTTPPSVYPLAPGSAAAAASMVTLGCLVKGYFPEPVTVTWNSGSLAAGVHTFPAVLQAALYTLSSSVTVPSSSWPSETVTCNVAHPASSTKVDKKIVPRA” the entry was “soluble”; with “MAHHHHHHMGCTASKTKTPAANVASKGADEFYALATTERHPVAEKLLEEWVLFVDAQARRNAGDSSAARAYETRLKEVWADTTNRPVTHRSVDYVGKMFLEYIKEDLSHRGWGGNFDYKVAGVVTQGFLKANANIDTALSDTPEEVTWEIKIHYDSLGVS”, “soluble”; with “STGKAKPKKHTAKELQAKADAALTNRGGGKAGLADRTGKEKGGHAKYECPHCKITVPDLKTMQIHHESKHPKLTYEEPRNLHEALAAPAESSKPKPGIRGSLKK”, “soluble”.
With “MSLNKKVVIDDVAKLAGVSKATISRYLNGKFEYMSEKTKDRIKESIEELNYRPNNIARSLKSNKSKLIGVVIADLTNPFSSIIIKGIGDECKARGYNMVIANSDNDVKQEEEYIKSLLDQRVEGIIVNSTGYNEEFLLSIKERGIPVSMVDRTFCEDKVDSVKSNNYDITVETINYLIDAGFNSLCFFTERLDNIKPRIERERAFIDVCSKRLKKENYNISVVDYSKAGNLEVNIYKFLNNYSGKKAIFAVNGVVLLHTLSAINKLNINVPKDLGICGYDNWGWAALIPPGITTISQPSYEMGSEAAKLVLDRIEGKASLGAVCKTLSAKLEIRGSTIPLNEGHHHHHH”, the “soluble on expression in E. coli” value is listed as “not soluble”.
For “MGSDKIHHHHHHMKIVVTKFGGSSLADSNQFKKVKGIIDSDANRKYIIPSAPGKRTNKDYKITDLLYLCNAHVKNGIPFDDVFKLISQRYTEIVSELNIDMDIAYYLEKVKKNIENGASSDYAASRGEYLNGVILAKYLNAEFIDAAEVIFFDKSGCFDEKKSYEKIKEKVLSCNKAVIPGFYGSSFNGDVKTFSRGGSDVTGSIISAGVNADLYENWTDVSGFLMADPRIVENPKTISKISYKELRELSYMGATVLHEEAIFPVKDSGIPINIKNTNKPSDPGTLILSDTHKEINLGTITGIAGKKNFTVIAIEKALLNSEVGFCRKILSILEMYGVSFEHMPSGVDSVSLVIEDCKLDGKCDKIIEEIKKQCNPDSIEIHPNMALVATVGTGMAKTKGIANKIFTALSKENVNIRMIDQGSSEINVIVGVETVDFEKAVKSIYNAFN”, the “soluble on expression in E. coli” value is on record as “not soluble”.
With “MGSDKIHHHHHHMLSVEKLACTHGDSHYLFDEVTFSLNPGERILISGYSGCGKSTLALLLSGLKESGKGQVLLNGSLIEPSDVGFLFQNPDLQFCMDTVAHELYFILENLQIEPEQMQDRSEFVLAQVGLKGFQNRLIYTLSQGEKQRLALATIFLKSPKLIILDEAFANLDQESASQLLQLVLNYQANNQSMLIVIDHLITYYQDIMDHYFWLEKRLTRVNFDYMLNRLNVFELEKKSHNTGDKLLSIKDFQVKLSKNKFISYLDFDLASGERLCLDGPSGVGKSSLFMGLLGLYRTKGKKQFTHRKQIPISFLFQNPLDQFIFSTVYDEIFQVCKDSNKARDILETINLWDKKQFSPFQLSQGQQRRLAIGSILASDSKLLLLDEPTYGQDAYHANMITTLLLSYCHKNHCGVIFTSHDPHLKECFATRFLEVSSCSI” the entry was “not soluble”; with “MGHHHHHHSHMAAPPQLRALLVVVNALLRKRRYHAALAVLKGFRNGAVYGAKIRAPHALVMTFLFRNGSLQEKLWAILQATYIHSWNLARFVFTYKGLRALQSYIQGKTYPAHAFLAAFLGGILVFGENNNINSQINMYLLSRVLFALSRLAVEKGYIPEPRWDPFPLLTAVVWGLVLWLFEYHRSTLQPSLQSSMTYLYEDSNVWHDISDFLIYNKSRPSN”, “not soluble”.
